Measured values as given in article PMC7351111, “WRNIP1 Is Recruited to DNA Interstrand Crosslinks and Promotes Repair” (Cell Reports, 2020).

Target: T1, His-ubiquitin (UniProt P0CG48 1-76)
T1 construct: ubiquitin (monomer); also called recombinant ubiquitin; source: recombinant
Assay: pull-down; 2 ug Flag-HA-WRNIP1 or Flag-HA-WRNIP1-19R with 2 ug His-ubiquitin; 300 mM KCl, 40 mM Tris-HCl pH 8.0, 100 ug/ml BSA; 30 C for 1 h; captured on anti-HA Sepharose at 4 C; immunoblot against WRNIP1 and ubiquitin
Details: both partners purified

B1: Flag-HA-WRNIP1 (purified from Sf9 cells) (natural protein, human, UniProt Q96S55 1-665, looked up)
chain: MEVSGPEDDPFLSQLHQVQCPVCQQMMPAAHINSHLDRCLLLHPAGHAEPAAGSHRAGERAKGPSPPGAKRRRLSESSALKQPATPTAAESSEGEGEEGDDGGETESRESYDAPPTPSGARLIPDFPVARSSSPGRKGSGKRPAAAAAAGSASPRSWDEAEAQEEEEAVGDGDGDGDADADGEDDPGHWDADAAEAATAFGASGGGRPHPRALAAEEIRQMLQGKPLADTMRPDTLQDYFGQSKAVGQDTLLRSLLETNEIPSLILWGPPGCGKTTLAHIIASNSKKHSIRFVTLSATNAKTNDVRDVIKQAQNEKSFFKRKTILFIDEIHRFNKSQQDTFLPHVECGTITLIGATTENPSFQVNAALLSRCRVIVLEKLPVEAMVTILMRAINSLGIHVLDSSRPTDPLSHSSNSSSEPAMFIEDKAVDTLAYLSDGDARAGLNGLQLAVLARLSSRKMFCKKSGQSYSPSRVLITENDVKEGLQRSHILYDRAGEEHYNCISALHKSMRGSDQNASLYWLARMLEGGEDPLYVARRLVRFASEDIGLADPSALTQAVAAYQGCHFIGMPECEVLLAQCVVYFARAPKSIEVYSAYNNVKACLRNHQGPLPPVPLHLRNAPTRLMKDLGYGKGYKYNPMYSEPVDQEYLPEELRGVDFFKQRRC
notes: WRNIP1, human; Purification as in Liang et al., 2016; also called wild-type WRNIP1; source: Sf9, purified
  binding result: binds
